Reference: patent publication US20100028924A1, “Method Of Diagnosing Pon1-Hdl Associated Lipid Disorders” (Rappaport Family Institute Research in the Medical Sciences, priority 2006, published 2010)

Legend:
apoA-I rHDL = assay: Inactivation kinetics of human PON1 192 isozymes on rHDL-apoA-I (NTA/β-mercaptoethanol); assay type: biochemical; conditions: 50-fold molar excess rHDL-apoA-I; NTA and β-mercaptoethanol each 5 mM, 25° C.
Experimental: FIGS. 5A-B are graphs showing the inactivation and catalytic stimulation of the human PON1 192R/Q isozymes. FIG. 5A is a line graph showing the inactivation kinetics of human PON1-192R and -192Q in the presence of rHDL-apoA-I. The delipidated isozymes (0.2 μM) were incubated with a 50-fold molar excess of rHDL-apoA-I in activity buffer, and subjected to inactivation by NTA and β-mercaptoethanol (each at 5 mM) at 25° C. Residual activity determined as above (FIG. 1) and data were fitted to a double-exponential function. FIG. 5B is a bar graph showing stimulation of the enzymatic activity of human PON1-192R and -192Q by rHDL-apoA-I. The delipidated isozymes were incubated with a 50-fold molar excess of rHDL-apoA-I, and enzymatic activity was determined with various substrates (at 1 mM for all the substrates, except TBBL at 0.25 mM). The activity is presented in relation to the initial activity of the delipidated enzymes (percentage of stimulation). Each bar represents the mean and S.D. of at least two independent measurements;
Human PON1-192R and Q isozymes purified from pooled blood samples [Gan, K. N., et al., Drug Metab Dispos, 1991. 19(1): p. 100-6] were kindly provided by Dr. Dragomir Draganov (University of Michigan, Ann Arbour), and stored in presence of 0.1% tergitol and 20% glycerol. Prior to assay, these samples were briefly delipidated [Gaidukov, L. and D. S. Tawfik, Biochemistry, 2005. 44(35): p. 11843-54] and dialyzed against activity buffer to remove the tergitol and glycerol that interfere with HDL binding. Dialyzed samples (0.2 μM) were incubated with rHDL (10 μM). Stability assays were performed at 25° C., in activity buffer supplemented with nitrilotriacetic acid (NTA) and β-mercaptoethanol, both at 5 mM. Data analysis was performed as described above for rePON1s. Stimulation of enzymatic activities was measured with various substrates at 1 mM concentration, except for TBBL (0.25 mM).
The progress of inactivation of human PON1 isozymes anchored on rHDL-apoA-I is illustrated in FIG. 5A. Inactivation of both isozymes followed a two-phase kinetics with similar inactivation rates, but different partitioning between the HDL-bound and unbound phases, as detailed in Table 4 hereinbelow. Amplitudes (A) and kinetic rates of inactivation (k^inactiv) were derived by fitting the data to a double-exponential curve.

[1] = Dihydrocoumarin hydrolysis by PON1 isozymes (Vmax); assay type: biochemical; conditions: Vmax^Q=1.125*Vmax^R
Experimental: Determination of a total PON1 level may be effected by any method known in the art. For example, the level of total PON1 may be determined using an antibody specific for PON1. Preferably, the level of total PON1 is determined by measuring the level of total enzymatically active PON1. Thus for example, the level of total PON1 may be measured using an ELISA assay. Such assays are known in the art—see for example Blatter et al, Biochem J 304 (Pt 2): 549-554. An exemplary method for measuring total PON1's serum concentration comprises assaying PON1 dihydrocoumarin hydrolysis as described in Example 3.

B1: human PON1-192Q: human PON1 192Q isozyme purified from pooled blood samples (protein)
chain: AKLIALTLLGMGLALFRNHQSSYQTRLNALREVQPVELPNCNLVKGIETGSEDLEILPNGLAFISSGLKYPGIKSFNPNSPGKILLMDLNEEDPTVLELGITGSKFDVSSFNPHGISTFTDEDNAMYLLVVNHPDAKSTVELFKFQEEEKSLLHLKTIRHKLLPNLNDIVAVGPEHFYGTNDHYFLDPYLQSWEMYLGLAWSYVVYYSPSEVRVVAEGFDFANGINISPDGKYVYIAELLAHKIHVYEKHANWTLTPLKSLDFNTLVDNISVDPETGDLWVGCHPNGMKIFFYDSENPPASEVLRIQNILTEEPKVTQVYAENGTVLQGSTVASVYKGKLLIGTVFHKALYCEL
apoA-I rHDL
  A2(%) (slow phase, HDL-bound fraction): 72%
  k1^inactiv (first, fast phase): 0.6 h⁻¹
  k2^inactiv (second, slow phase): 0.01 h⁻¹
[1]
  ratio of Vmax of PON1-192Q and -192R isozymes toward dihydrocoumarin: 1.125
